# B1: Hairpin Ribozyme (parent)
# chain: GUCCUCUUUCACGUGCGCGUGAAAGAGAGAAGUGAACCAGAGAAACACACGUUGUGGUAUAUUACCUGGUA
# Variants of: B1
# Assay: self-cleavage, relative activity (ratio to wild type); higher = more cleavage; co-transcriptional
row,Variant,self-cleavage
1,C48A C65A,0.131
2,C48A C66A,0.189
3,C48A G51A,0.106
4,C48A G51C,0.152
5,C48A G51U,0.141
6,C48A G54C,0.0747
7,C48A G54U,0.176
8,C48A G56A,0.135
9,C48A G56U,0.304
10,C48A G57C,0.148
11,C48A G68U,0.16
12,C48A U53A,0.228
13,C48A U53G,0.191
14,C48A U55C,0.144
15,C48A U58C,0.154
16,C48A U60G,0.149
17,C48A U62A,0.14
18,C48A U63C,0.198
19,C48A U67A,0.11
20,C48A U67C,0.137
21,C48G,0.153
22,C48G A59U,0.0386
23,C48G A64G,0.155
24,C48G A64U,0.149

row,Variant,self-cleavage
1,C48G A71G,0.142
2,C48G C65A,0.22
3,C48G C65G,0.149
4,C48G C65U,0.166
5,C48G C66A,0.131
6,C48G G51C,0.0824
7,C48G G51U,0.17
8,C48G G54U,0.211
9,C48G G56U,0.193
10,C48G G57A,0.151
11,C48G G57U,0.101
12,C48G G68A,0.226
13,C48G G68U,0.163
14,C48G U53G,0.128
15,C48G U55C,0.106
16,C48G U55G,0.143
17,C48G U58A,0.105
18,C48G U60C,0.0854
19,C48G U62C,0.139
20,C48G U62G,0.107
21,C48G U63A,0.181
22,C48G U67G,0.113
23,C48U,0.158
24,C48U A49G,0.153

row,Variant,self-cleavage
1,C48U A49U,0.208
2,C48U A59U,0.0991
3,C48U A61G,0.177
4,C48U A71G,0.242
5,C48U C66A,0.176
6,C48U G51U,0.165
7,C48U G56C,0.104
8,C48U G68U,0.097
9,C48U U52C,0.194
10,C48U U53A,0.0973
11,C48U U53G,0.112
12,C48U U58A,0.214
13,C48U U58G,0.152
14,C48U U62G,0.108
15,C48U U67G,0.0927
16,C48U U70C,0.0914
17,A49C A61C,0.124
18,A49C A64C,0.168
19,A49C A64G,0.0856
20,A49C A71C,0.291
21,A49C C50A,0.139
22,A49C C66A,0.28
23,A49C G54U,0.216
24,A49C G56C,0.12

row,Variant,self-cleavage
1,A49C G57A,0.193
2,A49C G69A,0.139
3,A49C G69U,0.136
4,A49C U53A,0.0758
5,A49C U53C,0.27
6,A49C U53G,0.0631
7,A49C U60G,0.166
8,A49C U62G,0.225
9,A49C U67A,0.13
10,A49C U67C,0.0984
11,A49C U67G,0.109
12,A49G A59C,0.194
13,A49G A59G,0.145
14,A49G A64U,0.0802
15,A49G C65A,0.42
16,A49G G51U,0.532
17,A49G G54A,0.64
18,A49G G54C,0.277
19,A49G G54U,0.541
20,A49G G56C,0.155
21,A49G G57U,0.22
22,A49G G68C,0.307
23,A49G G69U,0.148
24,A49G U53C,0.363

row,Variant,self-cleavage
1,A49G U53G,0.44
2,A49G U58A,0.217
3,A49G U62C,0.154
4,A49G U63A,0.0688
5,A49G U63C,0.253
6,A49G U70A,0.377
7,A49G U70C,0.262
8,A49G U70G,0.453
9,A49U C50U,0.139
10,A49U C65U,0.0248
11,A49U G54A,0.477
12,A49U G56C,0.102
13,A49U G56U,0.147
14,A49U G57C,0.0724
15,A49U G68A,0.172
16,A49U U52C,0.202
17,A49U U52G,0.364
18,A49U U53A,0.139
19,A49U U53C,0.124
20,A49U U53G,0.167
21,A49U U55C,0.349
22,A49U U58A,0.187
23,A49U U58C,0.28
24,A49U U58G,0.15

row,Variant,self-cleavage
1,A49U U60A,0.281
2,A49U U62C,0.196
3,A49U U63A,0.183
4,A49U U63G,0.111
5,A49U U67A,0.0529
6,A49U U67C,0.11
7,A49U U70C,0.124
8,C50A A59U,0.231
9,C50A A61U,0.281
10,C50A A64G,0.211
11,C50A C65A,0.142
12,C50A C65G,0.0746
13,C50A G54A,0.742
14,C50A G54C,0.375
15,C50A G57C,0.133
16,C50A G69U,0.173
17,C50A U53A,0.384
18,C50A U55C,0.582
19,C50A U58A,0.183
20,C50A U58C,0.144
21,C50A U60C,0.419
22,C50A U62A,0.0965
23,C50A U62C,0.147
24,C50A U62G,0.177

row,Variant,self-cleavage
1,C50A U70A,0.303
2,C50A U70G,0.252
3,C50G A59C,0.221
4,C50G A59G,0.211
5,C50G A64C,0.201
6,C50G A71C,0.69
7,C50G C65U,0.0289
8,C50G C66U,0.146
9,C50G G51C,0.327
10,C50G G54A,0.487
11,C50G G54U,0.441
12,C50G G57U,0.307
13,C50G G68U,0.22
14,C50G G69A,0.152
15,C50G G69C,0.227
16,C50G U52G,0.312
17,C50G U55C,0.16
18,C50G U58G,0.147
19,C50G U62C,0.158
20,C50G U62G,0.151
21,C50G U63G,0.0983
22,C50G U67C,0.0994
23,C50G U70C,0.498
